Read-outs that look alike come from different tables or passages of the source. No end group written: not given here.
What was measured:
[1] = molecular target: T1, calmodulin (native vertebrate CaM) (vertebrate, UniProt P0DP23 1-149); assay: other fluorescence titration
[2] = molecular target: T1, calmodulin (native vertebrate CaM); assay: other fluorescence titration; remark: listed apart in the source

| Kd [1] | Kd [2] | Binder |
| --- | --- | --- |
| 2.4 µM | 2.9 µM | AHKAATKIQASFRGHITRKKLKGEKKDDVQ (domain or fragment, also: fluorescent reporter) [BIQ, fluorescent reporter containing an IQ domain sequence derived from neuromodulin] |
| 1130 µM | 11 µM | TERAAVAIQSQFRKFQKKKAGSQS (domain or fragment, also: fluorescent reporter) [BIQPEP, fluorescent reporter containing an IQ domain sequence derived from PEP19] |
